Measured values taken from IntAct's records for PubMed 11250154.

B1: Virulence protein F (Agrobacterium tumefaciens (strain 15955)), P15597 (parent)
chain: MRNSSLRDASGSNDAQVPHKTELLNLPDHVLTEVAKRLATNNPVESAENIANFSKSHRFTRDAVRTEPLEKFSSRLKILSRNAKLLSHAVRHAATLPDGEQLSEAQLSQMRSEVATRPVLGVAYTHQDGQPEERLSGNHLDHKINNIPNLVFNVAEPIMFNEISALEVMAEVRPIARSIKTAHDDARAELMSADRPRSTRGL

Variants of: B1
Conditions: with skp1a_arath SKP1A
For MRNSSLRDASGSNDAQVPHKTELLNAADHVLTEVAKRLATNNPVESAENIANFSKSHRFTRDAVRTEPLEKFSSRLKILSRNAKLLSHAVRHAATLPDGEQLSEAQLSQMRSEVATRPVLGVAYTHQDGQPEERLSGNHLDHKINNIPNLVFNVAEPIMFNEISALEVMAEVRPIARSIKTAHDDARAELMSADRPRSTRGL [L26A;P27A], the “effect of a mutation on the interaction” value was “decreasing interaction strength”.

Variants of: B1
Conditions: with skp1b_arath SKP1B
With MRNSSLRDASGSNDAQVPHKTELLNAADHVLTEVAKRLATNNPVESAENIANFSKSHRFTRDAVRTEPLEKFSSRLKILSRNAKLLSHAVRHAATLPDGEQLSEAQLSQMRSEVATRPVLGVAYTHQDGQPEERLSGNHLDHKINNIPNLVFNVAEPIMFNEISALEVMAEVRPIARSIKTAHDDARAELMSADRPRSTRGL [L26A;P27A] the “effect of a mutation on the interaction” value was “decreasing interaction strength”.
